{"source": "patent US6379894", "about": "(NOVIMAUNE S A, dated 1999)", "binders": {"B1": {"name": "purified and activated recombinant STAT1 protein (other, UniProt P42224 1-750, looked up)", "chain": "MSQWYELQQLDSKFLEQVHQLYDDSFPMEIRQYLAQWLEKQDWEHAANDVSFATIRFHDLLSQLDDQYSRFSLENNFLLQHNIRKSKRNLQDNFQEDPIQMSMIIYSCLKEERKILENAQRFNQAQSGNIQSTVMLDKQKELDSKVRNVKDKVMCIEHEIKSLEDLQDEYDFKCKTLQNREHETNGVAKSDQKQEQLLLKKMYLMLDNKRKEVVHKIIELLNVTELTQNALINDELVEWKRRQQSACIGGPPNACLDQLQNWFTIVAESLQQVRQQLKKLEELEQKYTYEHDPITKNKQVLWDRTFSLFQQLIQSSFVVERQPCMPTHPQRPLVLKTGVQFTVKLRLLVKLQELNYNLKVKVLFDKDVNERNTVKGFRKFNILGTHTKVMNMEESTNGSLAAEFRHLQLKEQKNAGTRTNEGPLIVTEELHSLSFETQLCQPGLVIDLETTSLPVVVISNVSQLPSGWASILWYNMLVAEPRNLSFFLTPPCARWAQLSEVLSWQFSSVTKRGLNVDQLNMLGEKLLGPNASPDGLIPWTRFCKENINDKNFPFWLWIESILELIKKHLLPLWNDGCIMGFISKERERALLKDQQPGTFLLRFSESSREGAITFTWVERSQNGGEPDFHAVEPYTKKELSAVTFPDIIRNYKVMAAENIPENPLKYLYPNIDKDHAFGKYYSRPKEAPEPMELDGPKGTGYIKTELISVSEVHPSRLQTTDNLLPMSPEEFDEVSRIVGSVEFDSMMNTV", "modifications": "activated form (phosphorylated); the residue numbers are not given", "notes": "also called STAT1 factor"}}, "target": "T1, purified and recombinant USF1 protein (UniProt P22415 1-310, limits assumed)", "T1 construct": "also called USF1 recombinant factor; USF1 recombinant proteins", "T1 sequence (P22415 whole entry)": "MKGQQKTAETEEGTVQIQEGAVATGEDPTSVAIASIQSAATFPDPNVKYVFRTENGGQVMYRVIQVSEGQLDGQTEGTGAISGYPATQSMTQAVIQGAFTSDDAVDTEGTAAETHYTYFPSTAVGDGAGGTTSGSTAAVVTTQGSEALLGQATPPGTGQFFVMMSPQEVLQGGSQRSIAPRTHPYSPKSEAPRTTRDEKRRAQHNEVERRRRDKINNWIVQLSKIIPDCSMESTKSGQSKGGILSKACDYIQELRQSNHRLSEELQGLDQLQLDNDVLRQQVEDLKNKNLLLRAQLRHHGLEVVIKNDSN", "assay": "EMSA with recombinant proteins on radiolabelled NGE DNA probe, PhosphoImager", "from_the_text": "We then analysed whether STAT1 and USF1 proteins formed the U complex co-operatively after induction by interferon γ. […] Further, adding increasing quantities of activated STAT1 to a given quantity of USF1 in the presence of an excess of free NGE probe encouraged the formation of STAT1/USF1 complexes rather than binding of USF1 alone.", "data": [{"binder": "B1", "values": [{"measurement": "probe bound to the complex, as fold of the sum of probe bound to USF1 alone and STAT1 alone", "result": "~2", "unit": "fold"}]}]}
